In patent US20040001839A1, “Multimers - isolated molecules comprising epitopes containing sulfated moieties, antibodies to such epitopes, and uses thereof” (priority 2000, published 2004):

How the values were obtained:
[1] = target: T1, natural human platelet derived glycocalicin (Homo sapiens, UniProt P07359); assay: Western blot on natural platelet glycocalicin; type: binding; conditions: semi-purified human platelet derived glycocalicin
T1 construct: glycocalicin (soluble, extracellular fragment of GPIbα); from tissue; host or cells: human platelets
Method: The DNA fragment encoding for glycocalicin (GC, amino acid 1 to amino acid 493 of GPIbα) was cloned into an IPTG inducible prokaryotic vector cassette. E. coli (BL21 DE3) cells harboring the newly constructed plasmid were grown at 37° C. to O.D. 0.7-0.8, than at 37° C. for 3 hours for in the presence of IPTG for induction.
SDS-polyacrylamide gel loaded either with semi-purified human platelet derived glycocalicin (“GC”) or with E. coli cell lysates (“total”) derived from induced and non-induced cells were analyzed. Western blot analysis was performed with biotinylated Y1-scFv, polyclonal rabbit anti-human glycocalicin antibody, commercially available mouse anti-human CD42 monoclonal antibody (SZ2 Immunotech, PM640 Serotec, HIP1 Pharmigen, AN51 DAKO), and polyclonal antibody against the N-terminus of GPIbα (Sc-7071, Santa Cruz).

[2] = test system: platelet-rich-plasma (PRP); assay: Ristocetin-induced aggregation of platelet-rich plasma (scFv); type: cell-based, human; conditions: scFv 25 μg/ml, 100% = ristocetin treatment
Method: The effect of Y1 (scFv) on aggregation of platelet-rich-plasma (PRP) was tested at various concentrations of Y1. PRP was pre-incubated with Y1 scFv, Y17 scFv, or a control sTM-1cFv for 4 min at 37° C. before being exposed to ristocetin, an inducer of platelet agglutination and aggregation. A reversible inhibitory effect was observed when scFv was added to PRP prior to the addition of ristocetin, and it was dose dependent.
Blood was collected into a tube containing 3.8% sodium citrate. Platelet-rich plasma was prepared by centrifugation at 250×g for 10 minutes.
For platelet aggregation studies, platelet rich plasma (PRP) and washed platelets were stirred at 500 rpm at 37° C. in whole blood Lumiaggregometer (Chronolog, Havertown, Pa.). The difference in light transmission through the platelet suspension and suspending medium was taken as 100% aggregation. The effect of Y1 on platelet aggregation was evaluated by addition of different concentration of Y1 before the addition of agonist, and the effect was recorded for four minutes.

Leukemia Cells = assay: FACS of leukemia samples: anti-CD162 versus Y1; type: binding, human; conditions: 12 patient samples
Method: Analysis of binding of scFv Y1 antibodies and anti-CD162 antibodies to diseased cells also illustrates that scFv Y1 has binding characteristics different from those of anti-CD162 antibodies. […] (Table F). Y1 binds to the leukemic cells in 10 of 12 samples. In contrast, anti-CD162 bound only 5 out of 12 samples. […] Thus, it may be concluded that, in leukemic cells, scFv Y1 binds to a ligand other than that recognized by anti-CD162.
Samples provided from hospitals. Patients sample 30 μl/tube. Add 5 μl /tube of CD33-APC (for AML) or CD19-APC (for B-CLL) or CD38-APC (for Multiple Myeloma). Add 5 μl/tube of CD45-PerCp and 5 μl of scFv-Y1 or control scFv-N31 or CD162-PE (KPL1). Incubate tubes 30 minutes at 4° C. with low shaking. Wash by adding 2 ml PBS and spin 5 minutes at 1200 rpm. Discard supernatant.
For a one step assay continue with the lysis step:
Add 500 μl BD Lysine solution diluted 1:10 with ddH2O (300 μl to patient sample). Vortex at high speed and incubate 12 minutes at 4° C. Wash as above. Discard supernatant. And add 500 μl PBS. The samples are read in the FACS using blood sample acquisition setup according to international standards.
For two or more assays: working buffer is PBS+1% BSA+0.05% sodium azide. Incubations and wash as above.
Lysis of the red blood cells is the final step in the assay, followed by resuspension with 500 μl PBS.

B1: Y1 scFv: fully human scFv clone binding platelets and AML cells; SEQ ID NO:25, heavy chain CDR3 SEQ ID NO:8 (protein, listed as Homo sapiens)
scFv: MKYLLPTAAAGLLLLAAQPAMAEVQLVESGGGVVRPGGSLRLSCAASGFTFDDYGMSWVRQAPGKGLEWVSGINWNGGSTGYADSVKGRFTISRDNAKNSLYLQMNSLRAEDTAVYYCARMRAPVIWGQGTLVTVSRGGGGSGGGGSGGGGSSELTQDPAVSVALGQTVRITCQGDSLRSYYASWYQQKPGQAPVLVIYGKNNRPSGIPDRFSGSSSGNTASLTITGAQAEDEADYYCNSRDSSGNHVVFGGGTKLTVLGAAAEQKLISEEDLNGAA
In the case of B1, the “recognition in Western blot” value [1] is reported as “recognized”, the “% aggregation” value [2] is reported as 87% and the “samples in which the antibody binds the leukemic cells” value (Leukemia Cells) is reported as 10 of 12.
